{"source": "patent US20150065436A1", "about": "(UNIVERSITY OF SOUTHERN CALIFORNIA, published 2015)", "binders": {"B1": {"name": "fluorescein-labeled HIF-1α C-TAD786-826 (peptide)", "peptide": "SMDESGLPQLTSYDCEVNAPIQGSRNLLQGEELLRALDQVN", "modifications": "also: fluorescein label, site shown only in structure", "notes": "Fluorescent probe of the polarization assay; also called Flu-HIF C-TAD"}}, "key": {"[1]": {"target": "T1, p300-CH1 (cysteine-histidine rich 1 domain of human coactivator protein p300, amino acid residues 323-423) (human, UniProt Q09472 323-423, uniformly 15N-labelled; folded with 3 equivalents of Zn2+)", "T1 construct": "range 323-423; Expressed in E. coli from pGEX-4T-2 as a GST fusion; also called p300 CH1 domain; 15N-labeled p300-CH1", "T1 sequence (Q09472 323-423 limits assumed)": "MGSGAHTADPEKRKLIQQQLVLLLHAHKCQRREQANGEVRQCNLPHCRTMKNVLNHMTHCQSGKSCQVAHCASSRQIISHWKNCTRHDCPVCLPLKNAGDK", "experiment": "fluorescence polarization, p300-CH1 titrated into 15 nM fluorescein-labeled HIF-1α C-TAD786-826"}, "[2]": {"target": "T1, p300-CH1 (cysteine-histidine rich 1 …)", "experiment": "fluorescence polarization, p300-CH1 titrated into 15 nM fluorescein-labeled HIF peptide"}}, "note": "Ends that are not written are not given here.", "data": [{"binder": "B1", "values": [{"measurement": "EC50 (read off the curve)", "setting": "[1]", "result": "~40", "unit": "nM"}, {"measurement": "Kd", "setting": "[1]", "result": 31.9, "unit": "nM"}, {"measurement": "Kd", "setting": "[2]", "result": 31, "unit": "nM"}]}]}
